Results: the supplement of paper PMC7877785
± gives the uncertainty stated by the source.

Test: self-splicing fitness, log relative to wild type (ln ratio); higher = more splicing; Tetrahymena group I intron in knt gene, E. coli kanamycin selection, DiMSum; sequences stand for … in CUCUCU…GGAGGGAAAAGUUAUCAGGCAUGCACCUGGUAGCUAGUCUUUAAACCAAUAGAUUGCAUCGGUUUAAAAGGCAAGACCGUCAAAUUGCGGGAAAGGGGUCAACAGCCGUUCAGUACCAAGUCUCAGGGGAAACUUUGAGAUGGCCUUGCAAAGGGUAUGGUAAUAAGCUGACGGACAUGGUCCUAACCACGCAGCCAAGUCCUAAGUCAACAGAUCUUCUGUUGAUAUGGAUGCAGUUCACAGACUAAAUGUCGGUCGGGGAAGAUGUAUUCUUCUCAUAAGAUAUAGUCGGACCUCUCCUUAAUGGGAGCUAGCGGAUGAAGUGAUGCAACACUGGAGCCGCUGGGAACUAAUUUGUAUGCGAAAGUAUAUUGAUUAGUUUUGGAGUACUCGUGGUCG
In short: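 Library with all eight P1ex-region intron nucleotides randomised, intron inside the knt kanamycin-resistance gene on pET-22b(+), in E. coli BL21(DE3). Cells grew overnight at 37°C or 30°C on LB agar with or without 25 μg/mL kanamycin (plus 100 μg/mL carbenicillin, 50 μM IPTG, 0.2% rhamnose), in six replicate transformations. Pooled colonies were amplicon-sequenced on Illumina HiSeq 2500. DiMSum fitness is the error-weighted combination of wild-type-normalised replicate fold changes, kanamycin versus none.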

Sequence | self-splicing fitness (ln) (30 °C) | self-splicing fitness (ln) (37 °C)
CUGUAGCAAUAUUACGGACU | -3.43 ± 0.3 | -1.83 ± 0.24
GCUCAGCAAUAUUACGAGCC | -3.98 ± 0.31 | -3.64 ± 0.39
CAUGAGCAAUAUUACGGAGC | -3.21 ± 0.25 | -3.46 ± 0.35
GUCAAGCAAUAUUACGUCGU | -1.68 ± 0.066 | -0.826 ± 0.078
AGUGAGCAAUAUUACGACUG | -0.0618 ± 0.23 | 0.551 ± 0.31
GUACAGCAAUAUUACGCUAA | -2.37 ± 0.14 | -0.948 ± 0.11
ACAAAGCAAUAUUACGCAAG | -1.45 ± 0.079 | 0.00248 ± 0.087
UCGAAGCAAUAUUACGUAAA | -1.72 ± 0.11 | -0.804 ± 0.14
UGAUAGCAAUAUUACGCCCU | -0.0785 ± 0.15 | 0.0233 ± 0.21
CCAAAGCAAUAUUACGUUUU | -3.91 ± 0.14 | -2.75 ± 0.17
CCAUAGCAAUAUUACGAAGA | -3.41 ± 0.29 | -2.91 ± 0.34
GCCUAGCAAUAUUACGGCGC | -0.67 ± 0.14 | 0.263 ± 0.18
AAGAAGCAAUAUUACGUGGC | -4.15 ± 0.22 | -2.99 ± 0.2
UCCGAGCAAUAUUACGGACC | -2.53 ± 0.28 | -1.47 ± 0.36
CUCGAGCAAUAUUACGGUGA | -2.66 ± 0.19 | -0.793 ± 0.16
GUCGAGCAAUAUUACGAAGA | -3.82 ± 0.43 | -1.74 ± 0.31
GCAAAGCAAUAUUACGAUCA | -1.4 ± 0.12 | -0.882 ± 0.11
CUCGAGCAAUAUUACGAAGC | -3.7 ± 0.16 | -3.28 ± 0.21
UGCUAGCAAUAUUACGGAAC | -1.04 ± 0.5 | 
AAGUAGCAAUAUUACGAAGA | -2.57 ± 0.34 | -2.06 ± 0.34
GUACAGCAAUAUUACGCACC | -2.67 ± 0.26 | -2.35 ± 0.38
CUGGAGCAAUAUUACGCUCG | -1.13 ± 0.18 | 
GGCCAGCAAUAUUACGGACA | -0.666 ± 0.12 | -1.01 ± 0.17
GAUGAGCAAUAUUACGCCCU | -1.75 ± 0.15 | -1.4 ± 0.17
CAGCAGCAAUAUUACGGCCU | -0.922 ± 0.1 | -0.208 ± 0.12

Sequence | self-splicing fitness (ln) (30 °C) | self-splicing fitness (ln) (37 °C)
GUUUAGCAAUAUUACGUCAA | -2.3 ± 0.18 | -0.778 ± 0.16
GCUAAGCAAUAUUACGCCUU | -1.43 ± 0.11 | -0.0502 ± 0.14
CAGAAGCAAUAUUACGACCA | -0.857 ± 0.24 | 
UUUUAGCAAUAUUACGAGAA | -0.897 ± 0.48 | -0.946 ± 0.19
CGAAAGCAAUAUUACGGCCU | -1.32 ± 0.068 | -0.274 ± 0.082
CGUAAGCAAUAUUACGGUCC | -2.31 ± 0.18 | -2.18 ± 0.24
UCAGAGCAAUAUUACGCCAA | -2.84 ± 0.25 | -1.74 ± 0.29
ACAGAGCAAUAUUACGAACU | -3.35 ± 0.21 | -1.61 ± 0.21
GUGUAGCAAUAUUACGCGGG | -3.73 ± 0.2 | -2.75 ± 0.2
ACUCAGCAAUAUUACGACCU | -0.248 ± 0.12 | 0.216 ± 0.13
CUACAGCAAUAUUACGAGGA | -3.4 ± 0.2 | -3.21 ± 0.27
AACUAGCAAUAUUACGGCGC | -0.8 ± 0.13 | -0.34 ± 0.16
GGGAAGCAAUAUUACGUGAG | -0.751 ± 0.12 | -1.46 ± 0.12
ACGGAGCAAUAUUACGCCUG | -3.41 ± 0.2 | -1.52 ± 0.19
GGAUAGCAAUAUUACGUCAC | -2.88 ± 0.27 | -2.05 ± 0.26
GAACAGCAAUAUUACGCGAC | -2.3 ± 0.14 | -2.36 ± 0.18
GUGGAGCAAUAUUACGAAAA | -2.27 ± 0.43 | 
CUAUAGCAAUAUUACGCUUA | -2.47 ± 0.24 | -2.34 ± 0.3
ACACAGCAAUAUUACGUGGU | -4.33 ± 0.16 | -2.82 ± 0.11
CAGUAGCAAUAUUACGUGUU | -3.39 ± 0.22 | -2.78 ± 0.19
UAGCAGCAAUAUUACGAAUU | -2.58 ± 0.18 | -2.66 ± 0.24
GGAGAGCAAUAUUACGUGCG | -1.7 ± 0.14 | -2.06 ± 0.23
UAAUAGCAAUAUUACGCACG | -1.1 ± 0.16 | 0.193 ± 0.24
UUAGAGCAAUAUUACGUACA | -1.7 ± 0.26 | -1.51 ± 0.33
